Experimental data taken from paper PMC7840601.

Columns and labels:
[1] = target: human C3b (CompTech) (human); assay: SPR; 300 RU human C3b amine-coupled on a CM5 chip; FH1-4 WT or variant injected in duplicate at up to 40 uM; Biacore X100, 25 C, 30 ul/min, 10 mM HEPES-buffered saline, 3 mM EDTA, 0.05% surfactant P20; steady-state affinity model
[2] = target: human C3b (CompTech) (human)

In the case of “FH1-4 G69E (from UniProt P08603 19-263) (domain or fragment)”, the KD as a ratio of the KD of WT FH1-4 [1] is reported as 1.2 x WT.
Work on “FH1-4 Q81P (from UniProt P08603 19-263) (domain or fragment)” yielded a cofactor activity for FI-mediated cleavage of C3b on sheep erythrocytes, IC50 as a multiple of WT FH1-4 [2] of 11 x WT and a decay acceleration of the C3 convertase (C3bBb) on sheep erythrocytes, IC50 as a multiple of WT FH1-4 [2] of 25.1 x WT.
Work on “FH1-4 A161S (from UniProt P08603 19-263) (domain or fragment)” yielded a KD as a ratio of the KD of WT FH1-4 [1] of 0.97 x WT.
“FH1-4 S159N (from UniProt P08603 19-263) (domain or fragment)” was tested, and the KD as a ratio of the KD of WT FH1-4 [1] was 1.2 x WT.
Work on “FH1-4 D130N (from UniProt P08603 19-263) (domain or fragment)” yielded a KD as a ratio of the KD of WT FH1-4 [1] of 1.44 x WT.
Work on “FH1-4 M162V (from UniProt P08603 19-263) (domain or fragment)” yielded a KD as a ratio of the KD of WT FH1-4 [1] of 1.23 x WT.
